According to the RNAGym collection of RNA variant scans (doi:10.7554/elife.90254):

B1: LINE1-mini (parent)
chain: GGCAGAGCUCAACACAGCGUGGCAAAGUGGCUGUGGCUAGACUGCC

Variants of: B1
Assay: self-cleavage, relative activity (ratio to wild type); higher = more cleavage; in vitro, sequencing; the parent is a self-cleaving ribozyme

Variant | self-cleavage
GGCAGAGCUCAACAAAACGUGGCAAAGUGGCUGUGGCUAGACUGCC [C15A G17A] | 0.14
GGCAGAGCUCAACAAACCGUGGCAAAGUGGCUGUGGCUAGACUGCC [C15A G17C] | 0.04
GGCAGAGCUCAACAAAUCGUGGCAAAGUGGCUGUGGCUAGACUGCC [C15A G17U] | 0.09
GGCAGAGCUCAACAAAGCUUGGCAAAGUGGCUGUGGCUAGACUGCC [C15A G19U] | 0.09
GGCAGAGCUCAACAAAGCCUGGCAAAGUGGCUGUGGCUAGACUGCC [C15A G19C] | 0.14
GGCAGAGCUCAACAAAGCAUGGCAAAGUGGCUGUGGCUAGACUGCC [C15A G19A] | 0.06
GGCAGAGCUCAACUCAGCGUGGCAAAGUGGCAGUGGCUAGACUGCC [A14U U32A] | 0.05
GGCAGAGCUCAACUCAGCGUGGCAAAGUGGCCGUGGCUAGACUGCC [A14U U32C] | 0.15
GGCAGAGCUCAACUCAGCGUGGCAAAGUGGCGGUGGCUAGACUGCC [A14U U32G] | 0.1
GGCAGAGCUCAACAAAGCGUGGCAAAGUGGCUGUGGCUAGCCUGCC [C15A A41C] | 0.15
GGCAGAGCUCAACAAAGCGUGGCAAAGUGGCUGUGGCUAGUCUGCC [C15A A41U] | 0.05
GGCAGAGCUCAACAAAGCGUGGCAAAGUGGCUGUGGCUAGGCUGCC [C15A A41G] | 0.06
GGCAGAGCUCAACAAAGCGUGGCAAAGUUGCUGUGGCUAGACUGCC [C15A G29U] | 0.12
GGCAGAGCUCAACAAAGCGUGGCAAAGUCGCUGUGGCUAGACUGCC [C15A G29C] | 0.18
GGCAGAGCUCAACAAAGCGUGGCAAAGUAGCUGUGGCUAGACUGCC [C15A G29A] | 0.16
GGCAGAGCUCAACUCAGCGUGGCAAAGUGGCUGUGGCAAGACUGCC [A14U U38A] | 0.34
GGCAGAGCUCAACUCAGCGUGGCAAAGUGGCUGUGGCCAGACUGCC [A14U U38C] | 0.17
GGCAGAGCUCAACUCAGCGUGGCAAAGUGGCUGUGGCGAGACUGCC [A14U U38G] | 0.06
GGCAGAGCUCAACAAAGCGUGGCAGAGUGGCUGUGGCUAGACUGCC [C15A A25G] | 0.12

Variant | self-cleavage
GGCAGAGCUCAACAAAGCGUGGCAUAGUGGCUGUGGCUAGACUGCC [C15A A25U] | 0.07
GGCAGAGCUCAACAAAGCGUGGCACAGUGGCUGUGGCUAGACUGCC [C15A A25C] | 0.04
GGCAGAGCUCAACUCAGCGUGGCAAAGUGGCUCUGGCUAGACUGCC [A14U G33C] | 0.05
GGCAGAGCUCAACUCAGCGUGGCAAAGUGGCUAUGGCUAGACUGCC [A14U G33A] | 0.08
GGCAGAGCUCAACUCAGCGUGGCAAAGUGGCUUUGGCUAGACUGCC [A14U G33U] | 0.12
GGCAGAGCUCAACUCAGCGUGGCAAAGUGUCUGUGGCUAGACUGCC [A14U G30U] | 0.19
GGCAGAGCUCAACAAAGCGCGGCAAAGUGGCUGUGGCUAGACUGCC [C15A U20C] | 0.04
GGCAGAGCUCAACAAAGCGAGGCAAAGUGGCUGUGGCUAGACUGCC [C15A U20A] | 0.11
GGCAGAGCUCAACAAAGCGUGGCUAAGUGGCUGUGGCUAGACUGCC [C15A A24U] | 0.12
GGCAGAGCUCAACAAAGCGUGGCCAAGUGGCUGUGGCUAGACUGCC [C15A A24C] | 0.04
GGCAGAGCUCAACAAAGCGUGGCGAAGUGGCUGUGGCUAGACUGCC [C15A A24G] | 0.07
GGCAGAGCUCAACUCAGCGCGGCAAAGUGGCUGUGGCUAGACUGCC [A14U U20C] | 0.19
GGCAGAGCUCAACUCAGCGAGGCAAAGUGGCUGUGGCUAGACUGCC [A14U U20A] | 0.42
GGCAGAGCUCAACUCAGCGGGGCAAAGUGGCUGUGGCUAGACUGCC [A14U U20G] | 0.28
GGCAGAGCUCAACAAAGCGUGGCAAACUGGCUGUGGCUAGACUGCC [C15A G27C] | 0.1
GGCAGAGCUCAACAAAGCGUGGCAAAAUGGCUGUGGCUAGACUGCC [C15A G27A] | 0.15
GGCAGAGCUCAACAAAGCGUGGCAAAUUGGCUGUGGCUAGACUGCC [C15A G27U] | 0.09
GGCAGAGCUCAACUCAGCGUGGCAAAGUGGCUGUGUCUAGACUGCC [A14U G36U] | 0.24
GGCAGAGCUCAACUCAGCGUGGCAAAGUGGCUGUGACUAGACUGCC [A14U G36A] | 0.15

Variant | self-cleavage
GGCAGAGCUCAACUCAGCGUGGCAAAGUGGCUGUGCCUAGACUGCC [A14U G36C] | 0.08
GGCAGAGCUCAACAAAGCGUGGCAAAGUGGCUGUGGCUAGAUUGCC [C15A C42U] | 0.05
GGCAGAGCUCAACAAAGCGUGGCAAAGUGGCUGUGGCUAGAGUGCC [C15A C42G] | 0.04
GGCAGAGCUCAACAAAGCGUGGCAAAGUGGCUGUGGCUAGAAUGCC [C15A C42A] | 0.06
GGCAGAGCUCAACAAAGCGUGGCAAAGUGGCUGUGGCUAGACUGUC [C15A C45U] | 0.12
GGCAGAGCUCAACAAAGCGUGGCAAAGUGGCUGUGGCUAGACUGGC [C15A C45G] | 0.05
GGCAGAGCUCAACAAAGCGUGGCAAAGUGGCUGUGGCUAGACUGAC [C15A C45A] | 0.08
GGCAGAGCUCAACAAUGCGUGGCAAAGUGGCUGUGGCUAGACUGCC [C15A A16U] | 0.06
GGCAGAGCUCAACAAGGCGUGGCAAAGUGGCUGUGGCUAGACUGCC [C15A A16G] | 0.07
GGCAGAGCUCAACAACGCGUGGCAAAGUGGCUGUGGCUAGACUGCC [C15A A16C] | 0.08
GGCAGAGCUCAACAAAGCGUGGUAAAGUGGCUGUGGCUAGACUGCC [C15A C23U] | 0.14
GGCAGAGCUCAACAAAGCGUGGGAAAGUGGCUGUGGCUAGACUGCC [C15A C23G] | 0.05
GGCAGAGCUCAACAAAGCGUGGAAAAGUGGCUGUGGCUAGACUGCC [C15A C23A] | 0.18
GGCAGAGCUCAACAAAGCGUGGCAAAGUGGCUGUGGAUAGACUGCC [C15A C37A] | 0.08
GGCAGAGCUCAACAAAGCGUGGCAAAGUGGCUGUGGGUAGACUGCC [C15A C37G] | 0.04
GGCAGAGCUCAACAAAGCGUGGCAAAGUGGCUGUGGUUAGACUGCC [C15A C37U] | 0.1
GGCAGAGCUCAACAAAGCGUGGCAAAGUGGCUGUGGCUCGACUGCC [C15A A39C] | 0.06
GGCAGAGCUCAACAAAGCGUGGCAAAGUGGCUGUGGCUGGACUGCC [C15A A39G] | 0.08
